For experiment [1], the target named is T1, HER2 extracellular domain (soluble analyte in SPR) (human). Nature of the experiment: SPR, the reference itself. On the technique in general: SPR reads the build-up and loss of mass on a sensor chip optically.
The target of experiment [2] is T1, HER2 extracellular domain (soluble …). Nature of the experiment: SPR, standard deviation of KD.
Experiment [3] shares this target. Nature of the experiment: SPR (Biacore T200), variant captured on anti-human Fc, Her2 injected, single cycle kinetics, 25 C.

B1: v4182, monovalent (one-armed) anti-HER2 antibody with a Fab derived from pertuzumab on chain A (antibody, IgG1)
heavy: EVQLVESGGGLVQPGGSLRLSCAASGFTFTDYTMDWVRQAPGKGLEWVADVNPNSGGSIYNQRFKGRFTLSVDRSKNTLYLQMNSLRAEDTAVYYCARNLGPSFYFDYWGQGTLVTVSSASTKGPSVFPLAPSSKSTSGGTAALGCLVKDYFPEPVTVSWNSGALTSGVHTFPAVLQSSGLYSLSSVVTVPSSSLGTQTYICNVNHKPSNTKVDKKVEPKSCDKTHTCPPCPAPELLGGPSVFLFPPKPKDTLMISRTPEVTCVVVDVSHEDPEVKFNWYVDGVEVHNAKTKPREEQYNSTYRVVSVLTVLHQDWLNGKEYKCKVSNKALPAPIEKTISKAKGQPREPQVYVYPPSRDELTKNQVSLTCLVKGFYPSDIAVEWESNGQPENNYKTTPPVLDSDGSFALVSKLTVDKSRWQQGNVFSCSVMHEALHNHYTQKSLSLSPG
chain: not shown
light: not shown
notes: also called OA-pert
One may read the Kd as a measure of binding affinity in units of concentration. Low readings indicate tighter binding, high ones weaker binding. As for B1, the KD_wt/KD_var in experiment [1] turned out to be 1 fold. Moreover, the “STEDEV KD” value in experiment [2] came to 4.2 nM. This molecule had a Kd in experiment [3] of 14.9 nM.

Source of the values: patent publication US20160297891A1 (Zymeworks, published 2016).
